Results on 18 sequences are retold here after the DeepSol protein solubility set.

The data set is described as follows: soluble on expression in E. coli; label from the status in PepcDB or PDB records.
Regarding “MPSLLSSRIRNAEFAKKIVTDPAKLVPYFKNGDYVGWSGFTGVGYPKMIPNALARHVEENNLQGKLRFKLFVGASGGADTECKWAELNMIERRCPHQVGKPISKGINSGRIQFFDKHLSMFPQDLLYGYYTRNRESNTIDTAIIEATAITEDGGIVPGASVGASPELMQLAEKIIIEVNTAIPSFEGLHDIVEIPNPPHRTPININRVDDRIGKPYIKVDPKKVIGIVEADYGDITCANSPQDETSQAIAGHLVDFFHHEVSVGRLPKNLHPLQSGIGNIANAIIGGLAHSPFKDLEVWTEVLQDTFLPLFDSEKLRFATATSTRFSPQGFEKFYSNYDYYKERILLRPQVISNHPEIIRRLGCIAMNTPVEADIYAHANSTNVLGSRMLNGLGGSADFLRNAKLSIMHTPSVRPSKKDPTGITCIVPMATHVDQTEHDLDILVTEQGLADLRGLSPTERAREVIDKCAHPDYKPLLREYFDIAENYCLARGAGHEPHILANAFKMQLNLLEKGTMKIDHW”, the “soluble on expression in E. coli” value is listed as “soluble”. “MPSLSEFLRKRRARQRRLQAVPSNNKKKSNNNNIMSSTSSGKSRRAASLSSINNFEHLASVEKAGWLNKWTNYLKGYRQRWFVLDSNATLSYYRNPSEVGHTCRGSINLQEARVHTDKTTSCIVISGQSQTFHVKPQNEMDRQQWTNSLEYMRHKAITRAESEEDEDAQMAKTDSNRSDALILANRQMSGKLCDLRTAANMMNKQGDELMRALNGTVETDKNSLAERADLLKMTTSAVLQAAEEFVELSEQSAKRLNKIVAVEQKEKALLQEQLEALAKQHSSLERAASKCARGAAPVSVYSDQEDDEFHDAEEDLAMPCSNSNGPPATAGVHLTPTKRHIGAGDPSSSTCSDSGAVVVVGAHKGGRQRRTTVPERPNLPINLWSIMKNCIGKELSKIPMPVNFSEPISVLQRVTEDLEYANLLETGAKLSTLEQMCYVAAYAASNYSTTCHRTNKPFNPLLGETFEFDRMDDLGWRSVTEQVSHHPPAAAHHAEGNGWTMYQDFTMTSRFRGKYLSVIPIGFTHVVFPATKSHFSYRKITTTVHNIIVGKLWIDNHGDMEITNHETNEKCLLKFVPYSYFSREQPRKVYGIVRDAEGIPKYVVQGTWDKSIDMLKVSSWNGNHEKPKLEVDETSLKRIWTANPLPKNAEKMHNFTKLAIELNEPEEGVAPTDSRLRPDQRLMENGEWDEANRKKLEIEEKQRVVRRRREAEKELAMKKGDKYEEYEPTWFVRVQDESNGALIHQFKGGYWEAKEQQNWEKCPDIF”: the “soluble on expression in E. coli” value is given as “not soluble”. For “MPSRYTNILVPVDSSDAAQAAFTEAVNIAQRHQANLTALYVVDDSAYHTPALDPVLSELLDAEAAHAKDAMRQRQQFVATTSAPNLKTEISYGIPKHTIEDYAKQHPEIDLIVLGATGTNSPHRVAVGSTTSYVVDHAPCNVIVIR”, the “soluble on expression in E. coli” value is recorded as “not soluble”.

As for “MPSTDFADIPAAKKMKIDTCVLRFAKLTENALEPVRGSAKAAGVDLRSAYDVVVPARGKAIVKTDLQVQVPEGSYGRVAPRSGLAVKNFIDVGAGVVDEDYRGNLGVVLFNHSDVDFEVKHGDRIAQFICERIFYPQLVMVDKLEDTERGEAGFGSTGVK”, the “soluble on expression in E. coli” value is given as “soluble”.

Consider “MPSTLSEELVGKYLAAQYQVWIDTSVVTLQIGCQSAPLAALLQATGNRSAVYVTACNPASEVATSQENQSAMARLYERLACYSNHIYRGTGIDPSGEWPAEESLLALGIDLSIAKKIGDEFGQNAIVWIDSAAIPHLVLLC”, for which the “soluble on expression in E. coli” value was “not soluble”.

As to “MPSTNLTKRDWEKDHVYLVQFPRAGCIPSPSPYAFKVETFLRVADIPYTNINNEFKKMSARGQIPFIELNGRQHADSTIIIDNLTEHFHKSDLEDLSASDKAIARAFFALLEHHLCWVSLYSRGQDFGWLATDTGFGRLLTGIKGFAFKNFIVKSFTKKVRGRAAAQGMGTFSREEVLDQAKKDLDAISTQLGDKPYLFGSSIKTIDVTAFAHLAELIYTPQFSPEIRAYIDEKVPNVMEYVIRIKEKYWPDWEETTNTMNMATVWKKA”, the “soluble on expression in E. coli” value is recorded as “not soluble”. Take “MPSVFEAKGLPSLGPPVSNWGTNQPGTGVARNTRREKLGLWSAVALQQHFTATGGRGGLPLPLSSSALPSQEDRGTAAALGDNAGFSSGAVSSDLRSHLGPAPSLAGRLHKPTLAQRMGLVPGPTPPPSADDWRVITHRALQREHRHARDAGSPGANPSICPICQMSYSTNCDEGQVILSCSHVFHARCFRSFERYVRAQQRADALRIGEVSAPLACPVCRTQSYYKRIFYEGKAVAQRAAIVKVQAAVRGLLARRAYIKIKLQNNPEFRTRYVQERLARLSAAWQTFCAEQEQRRAGLQTALTVQQEMARAAFLSEEAWAEIWRKAVHGPSTSSEPGSSAAPSTAGASVQCPICLELIHCSQCPGTGAAASHAGGVRRLTGKDAVAAMWAAYEARKVAKRLPSVEPKAARASAGALVRSAVKGAAQRKTGNSLTPMPGAVASVRDGKVASSRAPEHRAGRQKGFAQPTAAAPWPEHANAFAALSSAPGVDAVGAHEAAVVLPQSGILLSCGHCFHAACIDCYERFHERRCLDMVEQDGGAVVAFPSRCPVCRSGYAKHPM”: the “soluble on expression in E. coli” value is given as “not soluble”. Turning to “MPTIKDYYLPKRPTLLFSLHPEPTQAIINGTKILEYRRRFFARPFQAFVYTTGDNGGIQLFLRCDQGLQLVPEQLALVGALLQHDAPTTTAAYFEGAKAGLALPITAFTTLPNIPLAQLRRQFENFVTPRSYVFLDQPDRQAQLDWLLTQPCESLTILDWRKRYAALATLLQKLEHHHHHH”, the “soluble on expression in E. coli” value is “not soluble”.

As to “MPTKANTQRNWTIMVYLAGDNNLDSAGVVDLKEMKTVGTTDKIAVLAQFDRAGAKQATIRYCLKQGTPLAKDAVQSLGETNMGDPKVLEDFVTWGVANYPADHYLLVLWNHGAGWDDANLYQGDVFSGAAPPVSRKAQPVATRGATAGAKAIPLAQARAGIRRARRALFSTTVEAAIKQRGIAFDDQAQDFLDNIELKRVLTAIKKKLKRKIDIVGMDACLMSMAEVAYQMRDVADYSVGSEETEPGDGWPYDRILKALAAKPAMTPEELSKTIVAQYLASYKATENVTQSAMKLLALNPLATAVDGMAKALTGILGDTAARTALINARSQVQEYSRPYDDYCDLLDLCDLIGKGVASPAVKTACAKVKDAAAAAIVAAGYKGTGVDNSGGISIYFPKRKLSPLYKTLDFTKKTAWDEFLAAYLAGLGRLEHHHHHH”, the “soluble on expression in E. coli” value is listed as “soluble”. For the sequence “MPTNVTAEYLAAEEEYRNAKTIPEKIRALEKMYALVPKHKGTEKLRLQIKRRLAELRRELEKQRQQRKGGGYSLAVKKEGAAQIVLVGLPNVGKSELLRALTGVDVESADYPFTTTEPVPAMMNYKDVQIQLVEVPGLLEGAALGKGMGPQLLAVIRNADAIAIVIDLSEDPIKQMEILLREFERAGIKVNKRRPRVEIRKTPSGGIVINGAENIKGDLSEVMRMLREEKIHSAEITVKEPVTLEEFADALDDSLVWKKAIIIANKGDSPGSKENYHKLINKYGEKFKIVPVSAKKRINLEAVKEAIYDVAEIIRVFTKSPGEEPAYPPIALKRGATVMDVAERIHKDLVKNFRYARVWGKSVKFPGQRVGPDHVLEDGDIVEIHAK”, the “soluble on expression in E. coli” value is reported as “soluble”. Consider “MPTVRVKEGENPEYALRRFKRSCEKAGILTELRRREFYEKPTAERKRKQAAAVKRHLKKISRDVSSRRGVGHRRKKSTTLEHHHHHH”, for which the “soluble on expression in E. coli” value is reported as “not soluble”. As for “MPTYKLSYFDVRAYAEPARILFHLAGVPFDDHRFPHGDGTWEKLKDKTPFGQVPVLYVDGFEIPQSAAIIRYLANKFGYAGKTPEEQAWADAIVDQFKDFMSLFREFKLAQKAGKSDVEIAKVASEVAIPARDSYFEIITNLLEKSKSGFLVGDGLTFADIVVVESLTNLEKVHFFDASEHPKLAALREKIYAIPAIKSWVDIRPDTIY”, the “soluble on expression in E. coli” value is recorded as “not soluble”. Turning to “MPVAHVALPVPLPRTFDYLLPEGMTVKAGCRVRVPFGKQQERIGIVVSVSDASELPLNELKAVVEVLDSEPVFTHSVWRLLLWAADYYHHPIGDVLFHALPILLRQGRPAANAPMWYWFATEQGQAVDLNSLKRSPKQQQALAALRQGKIWRDQVATLEFNDAALQALRKKGLCDLASETPEFSDWRTNYAVSGERLRLNTEQATAVGAIHSAADTFSAWLLAGVTGSGKTEVYLSVLENVLAQGKQALVMVPEIGLTPQTIARFRERFNAPVEVLHSGLNDSERLSAWLKAKNGEAAIVIGTRSALFTPFKNLGVIVIDEEHDSSYKQQEGWRYHARDLAVYRAHSEQIPIILGSATPALETLCNVQQKKYRLLRLTRRAGNARPAIQHVLDLKGQKVQAGLAPALITRMRQHLQADNQVILFLNRRGFAPALLCHDCGWIAECPRCDHYYTLHQAQHHLRCHHCDSQRPVPRQCPSCGSTHLVPVGLGTEQLEQTLAPLFPGVPISRIDRDTTSRKGALEQQLAEVHRGGARILIGTQMLAKGHHFPDVTLVALLDVDGALFSADFRSAERFAQLYTQVAGRAGRAGKQGEVVLQTHHPEHPLLQTLLYKGYDAFAEQALAERRMMQLPPWTSHVIVRAEDHNNQHAPLFLQQLRNLILSSPLADEKLWVLGPVPALAPKRGGRWRWQILLQHPSRVRLQHIINGTLALINTIPDSRKVKWVLDVDPIEG”, the “soluble on expression in E. coli” value is reported as “soluble”. For “MPVIKDAVCSLCGSLCDDITVTVEDNKITKIENACILGHSKFVGMFEHDRIETPMVRKDGELVPVSYEEAIEAAAKILVNSRRTLSYGWCSTSCEAVSGAIQLAEETGSIIDSTANVCHGPTALAAQEKGSPSASLGEIKNRADVIVFWGCNPVHAHPRHMSRYSSFSKGFFTEKGRKGRKMVVIDVRKTDTAKIADKYVEIEQGSDLLLVTALRSIVNGHEDVVPETVAGVPKAEVLELAETLKNAKFTCIFFGMGVTQSRSKYKNGDAVSSLISDLNQHTKAVMIGMRGHYNVTGFGQVATWETGFPMAIDFSRGYPYYNPGETGANDLLVREEPDAAIIAAADAGAHFPQKAVRHLARIPVIQIDPYANPTTEIADVVIPAAVVGIEAEGTAYRMDAISLRMKKLIDTEFKTDEEIVKDLTAKVREMKRGV”, the “soluble on expression in E. coli” value is “not soluble”. For the sequence “MPVIPKSGRLAAVGVLGRIVDVLMRLSLLIRGAVPGGVAAAAATRYRDRIDTGTTATYYGRVVREGGYVVLQYWFFYAMNDWRSVYGGVNDHEADWEKVTVYLVEEENGEYRPVWVGASSHEYLGDDLRRRWDDPELHRDGNHPIIYVGAGSHSHQMLPGDYLIQVDPAFLRGVLRAWRRFTARFLPSSSRLRGIGVPFVDYARGDGVRVGPGGERTWTPVLIDDTTPWVRGYRGLWGRNTRDWFDGERAPSGPRYERLEHHHHHH”, the “soluble on expression in E. coli” value is reported as “soluble”. Turning to “MPVKPASPRSHPGCPELTHERYCDAQAKAEDARYRKYQRDPKINRRYGSRWRKIRAAYVAAHPLCEDCLEAGRYTPVQEVHHVLPIEHGGTHNFDNLQSLCKPCHSRQSALDDDRWRQQPRVYTYLEHHHHHH”, the “soluble on expression in E. coli” value was “soluble”. Regarding “MPVKRSLKLDGLLEENSFDPSKITRKKSVITYSPTTGTCQMSLFASPTSSEEQKHRNGLSNEKRKKLNHPSLTESKESTTKDNDEFMMLLSKVEKLSEEIMEIMQNLSSIQALEGSRELENLIGISCASHFLKREMQKTKELMTKVNKQKLFEKSTGLPHKGQPQMSQPLLEHHHHHH”, the “soluble on expression in E. coli” value is given as “soluble”.

As for “MPVRKAKAVWEGGLRQGKGVMELQSQAFQGPYSYPSRFEEGEGTNPEELIAAAHAGCFSMALAASLEREGFPPKRVSTEARVHLEVVDGKPTLTRIELLTEAEVPGISSEKFLEIAEAAKEGCPVSRALAGVKEVVLTARLV”, the “soluble on expression in E. coli” value is listed as “soluble”.
